Measured values: the DeepSol protein solubility set

Assay: soluble on expression in E. coli; label from the status in PepcDB or PDB records
With “EVQLVQSGAEVKKPGSSVKVSCKASGGTFSNYAINWVRQAPGQGLEWMGGIIPIFNIAHYAQRFQGRVSITADESTSTAYMELSSLRSEDTAVFYCASPYPNDYNDYAPEEGMSWYFDLWGRGTLVTVSPASTKGPSVFPLAPSSKSTSGGTAALGCLVKDYFPEPVTVSWNSGALTSGVHTFPAVLQSSGLYSLSSVVTVPSSSLGTQTYICNVNHKPSNTKVDKKVEPK” the “soluble on expression in E. coli” value was “soluble”.
For “FDISVLSVAPLRQGETMKQGIDSAVSLAKAVDNMGYKRIWFAEHHNHDAYASAATVSIVQHILANTKDIRVGSGGIMLPNHSPLIVAEQFGTLETLYPNRVDLALGRAPGTDQKTADVIRRSNHNGVFFFEREVNDILRFVGDKSVQGEVRAYPGIGTHVPVFVLGSSTDSAEIAAKLGLPYAFGAQFSPHSMEEALSIYRENFQPSSYLQEPYVIACINVIAAESIDEASFISASHLQVYIDIYTNNLSKLIPPTENFLESLSQFELEILHSRLGYTIMGDRETIRRELIDFQQMYHADELIVLSNIYELSKEIQSYEILKQVVDELFKKRM”, the “soluble on expression in E. coli” value was “not soluble”.
With “FHSVLIANVNSGLGELASDADLTQVKGKTLTFGSESSTSGRLMPQYYLEQAGVSLEDFQGEVGFSASHDATIQLVEAGTYDLGMLNEQVWNSRVEAGEVDTNRVNVIWRSPAYYDYHWVISPDVDERYGEG” the “soluble on expression in E. coli” value was “not soluble”.
With “FISDLHLEAERPDITRAFLSFLDERARRAEALYILGDFFEAWIGDDGMDAFQRSIAQSLRQVADGGTRIYLMHGNRDFLIGKAFCREAGCTLLPDPSVIDLYGEPVLLMHGDSLCTRDEAYMRLRRWLRNPLTLWVLRHLPLATRHKLARKLRKESRAQTRMKAVDIIDVTPEEVPRVMRGHGVRTLIHGHTHRPAEHPLDIDGQPARRIVLGDWDRQGWALEIDANGHR” the “soluble on expression in E. coli” value was “not soluble”.
For “FLSDGKEIIAEKDEAIRETVKLLEEGHILAIKGIGGTHLACKVGEDDVVLELRKRLGRPTQPFAVMSKIEYTELFAEFDEDEKNALLSLRRPIVVLKKSQDYDKYFSKYVSNLDTIGVMFPYSGLHYLLFDKEIAYVMTSANLPGLPMVKDNDEILKKLNGIADYFLLHNRRIVNRCDDSVVKKVADRLVFLRRSRGFAPEPVKV”, the “soluble on expression in E. coli” value was “not soluble”.
In the case of “FNLKTPGREDDASSESGDNAEAERAPAFIRALGGAANLEVVDACTTRLRLRLVDRNKASDAQLKALGAMAVVRPGKAGSLQVVVGPQADSIADEIRRALPFDTQPGEAVPPLGSPHTAEEVVAMQATVDAAEAQAWLGALGGAGNLREVRDVALTRLRVSVADERKLATEQLRRLGGQGVSSLAGGICHILVGPRAAALSQALQPLLR”, the “soluble on expression in E. coli” value is reported as “not soluble”.
With “FQGAMSSSIDISKINSWNKEFQSDLTHQLATTVLKNYNADDALLNKTRLQKQDNRVFNTVVSTDSTPVTNQKSSGRCWLFAATNQLRLNVLSELNLKEFELSQAYLFFYDKLEKANYFLDQIVSSADQDIDSRLVQYLLAAPTEDGGQYSMFLNLVKKYGLIPKDLYGDLPYSTTASRKWNSLLTTKLREFAETLRTALKERSADDSIIVTLREQMQREIFRLMSLFMDIPPVQPNEQFTWEYVDKDKKIHTIKSTPLEFASKYAKLDPSTPVSLINDPRHPYGKLIKIDRLGNVLGGDAVIYLNVDNETLSKLVVKRLQNNKAVFFGSHTPKFMDKKTGVMDIELWNYPAIGYNLPQQKASRIRYHESLMTHAMLITGCHVDETSKLPLRYRVEVSWGKDSGKDGLYVMTQKYFEEYCFQIVVDINELPKELASKFTSGKEEPIVLPIWDPMGALA” the “soluble on expression in E. coli” value was “soluble”.
With “FSDILEDRIERLNACFAKAIARYNYPGVYRGVFPVKCNQERHLIEDLVKFGKPHQFGLEAGSKPELMIALAVLDTPGALLVCNGYKDREYIETAMLAQRLGQTPIIVLEQIEEVDLVIDANRQLGIKPILGVRAKLSTQGMGRWGASSGDRAKFGLTMPEVIEAVDKLREANLLDSLQLMHFHIGSQISAINVIKDAIQEASRIYVELAMLGADMKYLDVGGGLGVDYDGSQTNFYASKNYNMQNYANDIVAELKDTCAERQITVPTLISESGRAIAS” the “soluble on expression in E. coli” value was “not soluble”.
With “FWMELQAVDSYQVKASGILTGADRKIITMLYQPLMGAECLALYQTLFTEVEENRLWSEAHSHVQLLNMLDISLKALFEARLKLEGLGLLKSYVKTENDQRFYIYEILPPLSPEKFFSDGLLNIYLYSKIGNAQFQRLRRFFADETFETDTYSEITRSFQDVFEPFKGGSSAVPSESSQVLVDKIVPKEIEFDDASFDFNLFLSLLSPGMIAREKITKEVRQTILKLHGIYQVSEKDMPSYLYRALDANGEIDIVYLRKIVREGYTIENGAPPKLQMKQETPGKKEPEEALNDEEALQVYLESITPFQLLVDISDGAIPAETDLRVVEEVMNQQNLPVPVMNVLIEYVLLRLDRKLSKNYMMTIAAHWKRKNVKTAKEAMDLAWQEHEKYKRLQEEPATPKNNNYNRNYQKSTRKEILPDWFDKEQVAPAENKMTDKEKQTLEEQVREIKERLNKR” the “soluble on expression in E. coli” value was “not soluble”.
In the case of “GAASPGPSRPGLVPVSIIGAEDEDFENELETNSEEQNSQFQSLEQVKRRPAHLMALLQHVALQFEPGPLLCCLHADMLGSLGPKEAKKAFLDFYHSFLEKTAVLRVPVPPNVAFELDRTRADLISEDVQRRFVQEVVQSQQVAVGRQLEDFRSKRLMGMTPWEQELAQLEAWVGRDRASYEARERHVAERLLMHLEEMQHTISTDEEKSAAVVNAIGLYMRHLGVRTKSGDKK”, the “soluble on expression in E. coli” value is reported as “soluble”.
In the case of “GAEDHANHEHDDEMSAAAAHGVESLIYRRDTPFHPVRFNDWLDDWDGAIVRAKGFAWVASRPETVLGVSQAGPSVQAGPIGEWGNDDPSTRLVFIGQEMDGDALIGELDDCLATDKERTETFASDPFPREG”, the “soluble on expression in E. coli” value is reported as “not soluble”.
In the case of “GAERTIQLPKPDMNRAGLLMKALSERHSTREYASKALSNTDLSDLLWAANGINRSSEGKRTAPSAMNRQDIDIYVVLPQGTYLYDAKGHKLNLISEGDHRSAVAGGQAFVNNAPVSLVLVSDLSKLGDAKSNHVQLMGAMDAGIVSQNISLFCSAARLATVPRASMDLVRLKAALKLKDTQMPMMNHPVGYFK”, the “soluble on expression in E. coli” value is reported as “soluble”.
In the case of “GAMGKTVSQSQRLEHNWNKFFASFVPNLIKKNPQSKQFDHENIKQCAKDIVKILTTKELKKDSSRAPPDDLTKGKRHKVKEFINSYMDKIILKKKQKKALGLSS”, the “soluble on expression in E. coli” value is reported as “soluble”.
With “GAMGNLRLIGVPESDVENGTKLENTLQDIIQENFPNLARQANVQIQEIQRTPQRYSSRRATPRHIIVRFTKVEMKEKMLRAAREKGRVTLKGKPIRLTVD” the “soluble on expression in E. coli” value was “soluble”.
With “GDEEKRNRAITARRQHLKSVMLQIAATELEKEEGRREAEKQNYLAEH” the “soluble on expression in E. coli” value was “soluble”.
With “GDFAYTVGFNMSKNWNKVTNLGANDPIIESPWIKKVGYAIGTFYGYRSDGLLTQEDIDTGNYITDGLVPQAGDIKYVDLDGDGKLTDKDRTYIGCDVPDITYGVNLNLRYKGFELSMFGQGVTGTKVNFSMENAWAFSDYASPRKYHLKRWTVDNPNPNAAYPRIYPRTSKHSTYNQYFSDYWLFNADYFRIKNITFGYSFQKPVLQKLSLEALKLYVAAENPFTIRADHRMEDFDPETASGRGVNTRGTSSIAFGVNLTF” the “soluble on expression in E. coli” value was “not soluble”.
For “GDSTILKVLQSNIQHVQLYENPVLQEKALTCIPVSELKRKAQEKLFRARKLDKGTNVSDEDFLLLELLHWFKEEFFRWVNNIVCSKCGGETRSRDEALLPNDDELKWGAKNVENHYCDACQLSNRFPRYNNPEKLLETRCGRCGEWANCFTLCCRALGFEARYVWDYTDHVWTEVYSPSQQRWLHCDACEDVCDKPLLYEIGWGKKLSYIIAFSKDEVVDVTWRYSCKHDEVMSRRTKVKEELLRETINGLNKQRQLSLSESRRKELLQRIIVELVEFISPKTPRPGLEHHHHHH”, the “soluble on expression in E. coli” value was “soluble”.
With “GDTSWIKTGKVAWDWWNDWNLKGVPFKAGINMDTYKYYIDFASRNGLEFIVLDEGWYDPKSGDMLTVIPELDLPELIAYGKSKGVEIVLWTVFNVLDSQLEAACKKYADMGIKGFKVDFLDRDDQTAVEMVYRIAEMTARYKLTLDLHGIYKPTGINRTYPHII” the “soluble on expression in E. coli” value was “not soluble”.
For “GDYYDYLFKIVLIGDSGVGKSNLLSRFTRDEFNLESKSTIGVEFATKSIQLKNNKIIKAQIWDTAGQERYRAITSAYYRGAVGALLVYDITKKNSFENIEKWLKELRDNADSNIVILLVGNKSDLKHLRVINDNDATQYAKKEKLAFIETSALEATNVELAFHQLLNEIYNVRQKKQATKN”, the “soluble on expression in E. coli” value was “soluble”.
For “GESLFKGPRDYNPISSTICHLTNESDGHTTSLYGIGFGPFIITNKHLFRRNNGTLLVQSLHGVFKVKNTTTLQQHLIDGRDMIIIRMPKDFPPFPQKLKFREPQREERICLVTTNFQTKSMSSMVSDTSCTFPSSDGIFWKHWIQTKDGQAGSPLVSTRDGFIVGIHSASNFTNTNNYFTSVPKNFMELLTNQEAQQWVSGWRLNADSVLWGGHKVFMSKPEEPFQPVKEATQLMNELVYSQ”, the “soluble on expression in E. coli” value was “soluble”.
With “GEYKMMMARVAALPEDYQFVFKKIQNYMWNFSAGNGMDMLHIQYELIDLFEAGAAEGRQVLDITGEDVASFADELVANAKTYVSK” the “soluble on expression in E. coli” value was “soluble”.
In the case of “GFIDSHVHIESSMVSPKEFARAVISRGTTTIIVDPHEIANVCGMDGIKYMMEETKNMPLDVFFMLSSCVPATSFETSGAVLKAEDLKELIDSDRVLGLGEMMNYPGVLSREEEVLNKLKLAGSYNKIVDGHAPSVRGNELNAYNLAGIKTDHECSSIEEMNEKIRNGMYIAIREGSAAKNLDILIKGVNAKNERRIMFCADDRHPDDILKSGHMDNCVRRAIYNGIENTAAIRMASINAAECYKLERVGAIAPSYKADLVVLEDLKDVKVNMVIKSGEVVFKDNKHLKDMGSKSDI”, the “soluble on expression in E. coli” value is reported as “not soluble”.
With “GFQSNAMKQETPITLHVKSVIEDDGNQEVIEFRTTGFYYVKQNKVYLSYYEEHDLGKVKTIVKVSEGEVLVMRSGAVKMNQRFVTGASTIAKYKMSFGELELKTSTKSIQSDLDEEKGRISIAYDMHVGDEQEHLHNMTITYEGGTHA” the “soluble on expression in E. coli” value was “soluble”.
In the case of “GFRKMAFPSGKVEGCMVQVTCGTTTLNGLWLDDTVYCPRHVICTAEDMLNPNYEDLLIRKSNHSFLVQAGNVQLRVIGHSMQNCLLRLKVDTSNPKTPKYKFVRIQPGQTFSVLACYNGSPSGVYQCAMRPNHTIKGSFLNGSCGSVGFNIDYDCVSFCYMHHMELPTGVHAGTDLEGKFYGPFVDRQTAQAAGTDTTITLNVLAWLYAAVINGDRWFLNRFTTTLNDFNLVAMKYNYEPLTQDHVDILGPLSAQTGIAVLDMCAALKELLQNGMNGRTILGSTILEDEFTPFDVVRQCSGVTHHHHHH”, the “soluble on expression in E. coli” value is reported as “soluble”.
In the case of “GFVGRFGASSATTDRSKIFTADFRDFETSFSFQPGVFWGYDDFLSSALLLDIGYNKDKYELKYTVNGGRLLENYDFNSISFGLFPRLNISFVSIGVGGGIKIPLSLKYSKEGDAYSYNKYSLDFGDIKDSFETFYIPYVKVSLDFLIKTKGKFMMSLGVYANYDFPININRNGLLKDISIDKESIAAFDIGFQIGAYLVNR”, the “soluble on expression in E. coli” value is reported as “not soluble”.
In the case of “GHMASGSLGELQESQSRLEAATKECQALEGRARAASEQARQLESEREALQQQHSVQVDQLRMQGQSVEAALRMERQAASEEKRKLAQLQVAYHQLFQEYDNHIKSSVVGSERKRGMQLEDLKQQLQQAEE”, the “soluble on expression in E. coli” value is reported as “soluble”.
For “GHMKCPVCHQGEMVSGIKDIPYTFRGRKTVLKGIHGLYCVHCEESIMNKEESDAFMAQVKAFRASVNAETVAPEFIVKVRKKLSLTQKEASEIFGGGVNAFSRYEKGNAQPHPSTIKLLRVLDKHPELLNEIR”, the “soluble on expression in E. coli” value was “soluble”.
For “GHMLDVAPPVITPRGTKIEPSAGAPFEAVRVARDVLHTSRTAALATLDPVSGYPYTTATNIGIEPDGTPFFFAAGLTLHARNMETDARISVTLAPFGKGDALTLPRLTLVGRADRIGPDEVPLAIARYIARYPKAKLYLSLPDTRLYRLRTEGVQINGGPARNASNITPADLRTDLSGAEELMAAAESEATRLNAIKGEASRLAVLAGAKTGRWKITSIDPDGIDLASASDLARLWFAERVETLKQFEKALAQLLKGS”, the “soluble on expression in E. coli” value was “soluble”.
